Results published in patent US20070128190A1.

Assays:
[1] = molecular target: human α2β1 integrin on human cells (platelets, leukocytes, HT1080) (human) (UniProt P17301); assay: cell-based or functional assay
[2] = molecular target: human platelet α2β1 integrin (immobilized on microtiter plates) (human) (UniProt P17301); assay: competition with Eu-TMC-2206 on platelet α2β1-coated plates
TMC-2206 [3] = assay: ELISA, GST fusion protein on immobilized TMC-2206 (Kd apparent)
TMC-2206 [4] = assay: fusion protein competing Eu-TMC-2206 off α2β1-coated plate
TMC-2206 [5] = assay: ELISA, GST fusion protein on immobilized TMC-2206
[6] = molecular target: Humanized TMC-2206 (hIgG4/κ VH12.0/VL10.0Q); assay: fusion protein competing Eu-humanized TMC-2206 off α2β1-coated plates
TMC-2206 [7] = assay: ELISA, GST fusion protein on immobilized TMC-2206, Kd estimated from EC50

| Substance | Kd (TMC-2206 [3]) [nM] | Ki (TMC-2206 [4]) [nM] | other results |
| --- | --- | --- | --- |
| 10G11 (antibody) | – | – | EC50, adhesion of resting platelets to Type I collagen [1]: > 200 nM |
| AK7 (antibody) | – | – | Ki [2]: 0.07 nM |
| GST-hα2 I domain E44V (from UniProt P17301 153-368) | 0.23 | 0.35 | – |
| GST-hα2 I domain I21V (from UniProt P17301 153-368) | 0.28 | 0.24 | – |
| GST-hα2 I domain N67E (from UniProt P17301 153-368) | 0.28 | 0.4 | – |
| GST-hα2 I domain Q48T (from UniProt P17301 153-368) | 0.19 | 0.73 | – |
| GST-hα2 I domain Q105E (from UniProt P17301 153-368) | 0.15 | 0.38 | – |
| GST-hα2 I domain T76D (from UniProt P17301 153-368) | 0.17 | 0.15 | – |
| GST-hα2 I domain V70I (from UniProt P17301 153-368) | 0.44 | 0.86 | – |
| GST-hα2 I domain V71I (from UniProt P17301 153-368) | 0.19 | 0.83 | – |
| GST-hα2 I domain Y77F (from UniProt P17301 153-368) | 0.22 | 0.39 | – |
| GST-hα2 I domain Y93H (from UniProt P17301 153-368) | 6.1 | – | fold decrease in apparent affinity (TMC-2206 [5]): 23 fold |
| GST-mα2 I domain H93Y (from UniProt Q62469 150-377) | – | 20.2 | fold decrease in potency relative to the wt human α2 I domain (TMC-2206 [4]): 200 fold |
| GST-rat α2 I domain fusion protein (from UniProt Q62469 150-377) | – | 3.8 | fold shift in Kd compared to human α2 (TMC-2206 [5]): 3 fold; Ki [6]: 5.23 nM; fold decrease in Ki compared to the human α2 I domain [6]: 9 fold; Kd (TMC-2206 [7]): 0.54 nM |
